Data set [1] deals with T1, Hsc70 (Homo sapiens, UniProt P11142).
T1 construct: 6X His-tag (TEV-cleavable) (cleaved yes); made in house; host or cells: E. coli Rosetta (DE3)
Put plainly: ATPase activity of Hsc70 (malachite green). The format is biochemical. Particulars: no peptide; "usually about". From the text:
Hsp70s consist of an nucleotide-binding domain (NBD) and a substrate-binding domain (SBD). Hsc70 works using an allosteric mechanism whereby substrate binding at the SBD stimulates the ATP hydrolysis rate at the nucleotide-binding domain. The basal ATPase rate of Hsp70 is low, usually about 0.05 ± 0.009 mol Pi/mol protein, and increases when it is stimulated by binding of a peptide to the canonical site in the SBD. We measured the ability of SNAP-25 peptides SNNP and SNCP to stimulate the ATPase rate of Hsc70 (Fig. 5A). SNNP and SNCP binding cause a 1.5-fold increase of the Hsc70 ATPase rate over basal (observed rates upon addition of SNNP and SNCP were 0.089 ± 0.008 and 0.080 ± 0.005, respectively). In order to confirm that peptides are indeed binding at the canonical binding site of Hsc70, we used the V438F mutant that blocks the binding site ([37]). […] The addition of CSPαJ stimulates the ATPase activity of Hsc70 ∼4-fold with and without peptides.
Figure 5 SNN and SNC peptides interact with the canonical substrate-binding site of Hsc70.A, ATPase activity of Hsc70 (2 μM) in the absence (gray) and presence of 200 μM SNNP (orange) and SNCP (green) peptides. Error bars represent the SDs from three independent experiments. B, binding of SNAP-25 (black), SNNP (orange), LoopP (blue), and SNCP (green) peptides to Hsc70 followed by competition for FITC-p5 peptide using fluorescence anisotropy. Increasing concentrations of the competitors were added to a complex of Hsc70 (5 μM) and FITC-p5 peptide (50 nM). Error bars represent SDs from three independent experiments. […]
We performed ATPase assays to observe the activity of Hsc70 in the presence of SNAP25 peptides. […] Absorbance readings were taken at 620 nm using a BioTek plate reader. […]
(C) ATPase activity of Hsc70 (at 2 μM) in the absence (grey) and presence of 200 μM SNNP (orange) and L(Loop)-SNCP (green) peptides, and in the absence and presence of CSPa-J and CSPa-J/Apg2. The statistical significance was calculated using one-way ANOVA test with Sidak’s multiple comparison and the Hsc70 ATPase activity […]

Data set [2] has as its target T1, Hsc70. Put plainly: Competition binding vs FITC-p5 by fluorescence anisotropy. Particulars: Hsc70 5 μM, FITC-p5 50 nM, competitor 0 to 200 μM, phosphate buffer pH 7.4, overnight 4 °C, fluorescence anisotropy 485/516 nm, three independent experiments. On the procedure: Figure 3 Hsc70 forms complexes with SNAP-25.A, native PAGE of SNAP-25 (10 μM) in the presence and absence of Hsc70 (2 μM). The difference in signal intensity of His-SNAP25 probed with antibody is likely due to altered epitope exposure upon formation of the SNAP-25-Hsc70 complex. B, binding of SNAP-25 (black), SNAP-25 SNN (SNNFR, orange), and SNC (SNCFR, green)) fragments to Hsc70 by competition followed by fluorescence anisotropy. Increasing concentrations of the competitors were added to a complex of Hsc70 (5 μM) and FITC-p5 peptide (50 nM). Error bars represent SDs from three independent experiments.
To pin down the regions in SNAP-25 where Hsc70 binds we expressed the individual SNN and SNC fragments of SNAP-25 and tested their ability to compete for Hsc70 binding to an FITC-labeled p5 peptide (ALLLSAPRR).
Figure 5 SNN and SNC peptides interact with the canonical substrate-binding site of Hsc70.A, ATPase activity of Hsc70 (2 μM) in the absence (gray) and presence of 200 μM SNNP (orange) and SNCP (green) peptides. Error bars represent the SDs from three independent experiments. B, binding of SNAP-25 (black), SNNP (orange), LoopP (blue), and SNCP (green) peptides to Hsc70 followed by competition for FITC-p5 peptide using fluorescence anisotropy. Increasing concentrations of the competitors were added to a complex of Hsc70 (5 μM) and FITC-p5 peptide (50 nM). Error bars represent SDs from three independent experiments. C, structure of the canonical substrate-binding site of human HspA1 (PDB 4po2) illustrating the location of Hsc70 residues Ile 403 and Ile 440 in red and green spheres, respectively (N.B., Hsc70 and HspA1 share […] sequence identity). The SBD is shown in gray, bound substrate in cyan sticks, and the side chain of the residue occupying the 0th position in the chaperone (“anchor residue”) in orange ball and sticks. For better visualization of the substrate-binding site, residues 512 to 613, 405 to 408, and 431 were removed in this illustration of the structure. D, the Ile region of the ^1H-^13 C HMQC spectra of Ile-^13CH3-labeled Hsc70 (40 μM) in the absence (black) and in the presence of unlabeled SNNP (orange) and SNCP (green) peptides (200 μM).
To further characterize the binding of the SNAP-25 peptides to Hsc70 we used competition assays as above. Peptides SNNP, LOOPP, and SNCP were titrated against the protein-peptide complex of Hsc70 and FITC-p5 and fluorescence anisotropy was monitored to assess how well the SNAP-25 peptides displaced the model peptide.
Direct binding between the p5 peptide (QSRLLLSAPRRAA) and Hsc70 was carried out as described previously ([52]). […] Fluorescence anisotropy was measured in a BioTek plate reader (BioTek) with excitation at 485 nm and emission at 516 nm.
The measured anisotropy values were converted to fraction bound (fb) using the equation: fb=(r−r0)/(rb−r0) where r is the anisotropy value at any point, r0 is the anisotropy value of FITC-p5 in the absence of Hsc70, and rb is the anisotropy value of FITC-p5 when fully bound to Hsc70. […]
For competition assays, the concentrations of Hsc70 and FITC-P5 were kept constant at 5 μM and 50 nM, respectively, and the competitor substrate was titrated from 0 to 200 μM in phosphate buffer. […] Fluorescent anisotropy was measured as described above. […]

A short description of data set [3]: SNAP-25 aggregation kinetics by optical density. Particulars: without SNAP-25, 37 °C. The format is biochemical. On the procedure:
(§1) To test our hypothesis that Hsc70 inhibits SNAP-25 aggregation, we monitored the aggregation kinetics of recombinantly expressed SNAP-25 in the absence and presence of Hsc70 by following optical density at 360 nm (Fig. 2). […] This lag time was elongated to ∼65 h in the presence of Hsc70. In neurons, Hsc70 works in collaboration with its co-chaperone CSPα. […] (Fig. S2A). Apg2 is a member of the Hsp110 family, which is known to suppress protein aggregation ([36]). […] (Fig. S2B).
(§2) Figure 2 Hsc70 delays the aggregation of SNAP-25. Aggregation kinetics of SNAP-25 (50 μM) at 37 °C. Optical density of SNAP-25 was recorded at 360 nm in the absence (black) and in the presence of Hsc70 (5 μM, red), and Hsc70+CSPαJ (5 μM each, blue).
(§3) Aggregation of SNAP-25 at 50 μM was followed by measuring the A360 in a 96-well plate using a BioTek plate reader (BioTek), at 37 °C with shaking at 300 rpm, in the absence and presence of Hsc70 and CSPαJ at 5 μM each, and Apg2 at 0.5 μM. The aggregation buffer included 20 mM phosphate buffer pH 7.4, 100 μM MgCl2, and 100 mM KCl, and an ATP-experiment was carried out using regeneration system (5 mM 2-phosphoenolpyruvate, 0.05 mg/ml pyruvate kinase, and 5 mM ATP), as described previously ([51]).
(§4) Figure SI 2. Apg2 enhances the effect of Hsc70 on SNAP-25. (A) Aggregation kinetics of SNAP-25 (50 μM) at 37 °C. OD600 of SNAP-25 was recorded in the absence (black) and in the presence of Hsc70, Hsc70+CSPa-J (blue) and Hsc70+CSPa-J+Apg2 (turquoise). […]
(§5) concentrations are SNAP-25 (50 μM), Hsc70 (5 μM), CSPa-J (5 μM) and Apg2 (0.5 μM).
(§6) (B) Aggregation kinetics of SNAP-25 (50 μM) at 37 °C. OD600 of SNAP-25 was recorded in the absence (black) and in the presence of Apg2 (blue). […]

The test system of data set [4] is SNAP-25. Kind of data set: SNAP-25 aggregation kinetics by optical density. The format is biochemical. Particulars: SNAP-25 50 μM, Hsc70 5 μM, 37 °C, shaking 300 rpm, OD 360 nm, 20 mM phosphate buffer pH 7.4, 100 μM MgCl2, 100 mM KCl. On the procedure: as §1, §2, §3, §4, §5, §6
Data set [5] concerns SNARE complex with syntaxin and synaptobrevin. Kind of data set: SDS-resistant SNARE complex formation (SDS-PAGE). The format is biochemical. Particulars: with Hsc70, mixed with syntaxin and synaptobrevin, 1 M NaCl, 4 °C. On the procedure:
We took aliquots of SNAP-25 at different time points of the aggregation reaction (at 0 h, in lag phase and at 64 h in the log or saturation phase, Fig. 2A) and mixed them with the SNARE motifs of syntaxin and synaptobrevin to allow the formation of the SNARE complex.
Figure 6 Hsc70 facilitates incorporation of SNAP-25 into the SNARE complex in vitro. SDS-PAGE of SNAP-25 taken from the aggregation reactions (Fig. 2) at 0 h and 64 h after the initiation, without (left) and with Hsc70 (right), and mixed with syntaxin and synaptobrevin for the time indicated below each SDS-PAGE. SNAP-25 is expressed and purified from E. coli; a minor amount of the bacterial Hsp70 homolog DnaK (∼70 kDa) may copurify with SNAP-25, explaining the presence of higher molecular weight bands, with its proteolysis potentially occurring during ∼64-h SNAP-25 aggregation reactions. For synaptobrevin, we attribute the higher molecular weight bands to incomplete cleavage of GST-tagged synaptobrevin.
The SNARE motifs were mixed in an equimolar ratio in the following order: synaptobrevin-2 (29–93), syntaxin-1A (191–253), and SNAP-25 taken from the aggregation reaction, in the presence of 1 M NaCl. The assembly reaction was incubated at 4 °C overnight while rotating. The SNARE motifs were concentrated using a 30-kDa molecular weight cutoff Amicon centrifugation filters and run on 4 to 20% gradient SDS-PAGE.

Data set [6] has as its system SNAP-25. Kind of data set: Far-UV CD. The format is physicochemical. The settings on record: far-UV CD 200–250 nm, 22 °C (Fig. S1). On the procedure:
SNAP-25 has four native cysteines that are palmitoylated upon interaction with the membrane. […] For all of our studies, the SNAP-25 CS mutant was used unless otherwise mentioned.
The far-UV CD spectra (200–250 nm) were recorded on a Jasco J-1500 Circular Dichroism Spectrophotometer at 22 °C. The SNAP-25 WT, SNAP-25, and mixture of SNAP-25 and Hsc70 were taken in a 1 mm path length quartz cuvette. Figures show the average of ten scans where the buffer baselines were subtracted. Data were plotted using software using the Origin (Pro) program (OriginLab Corp).

T1 sequence (P11142 whole entry): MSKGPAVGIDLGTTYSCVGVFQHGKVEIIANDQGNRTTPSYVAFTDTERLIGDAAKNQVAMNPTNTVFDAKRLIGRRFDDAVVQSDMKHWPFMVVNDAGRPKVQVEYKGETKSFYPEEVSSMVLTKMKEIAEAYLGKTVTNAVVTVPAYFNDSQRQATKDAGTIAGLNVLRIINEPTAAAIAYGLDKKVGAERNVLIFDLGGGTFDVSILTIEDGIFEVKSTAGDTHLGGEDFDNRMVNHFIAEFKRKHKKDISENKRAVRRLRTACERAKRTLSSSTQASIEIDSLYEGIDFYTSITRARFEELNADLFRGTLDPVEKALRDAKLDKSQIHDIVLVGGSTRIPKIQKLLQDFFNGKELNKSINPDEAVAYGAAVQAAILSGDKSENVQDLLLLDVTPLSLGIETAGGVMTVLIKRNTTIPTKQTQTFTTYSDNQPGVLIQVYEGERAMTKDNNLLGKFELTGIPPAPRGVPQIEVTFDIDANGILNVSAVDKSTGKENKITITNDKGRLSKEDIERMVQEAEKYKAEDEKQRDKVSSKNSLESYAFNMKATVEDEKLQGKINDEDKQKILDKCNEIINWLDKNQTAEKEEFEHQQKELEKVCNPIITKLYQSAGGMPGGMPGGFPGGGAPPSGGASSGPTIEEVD

Consider 70-kDa heat shock protein [Hsp70], for which the “basal ATPase rate” value with Hsc70 [1] is “about 0.05 ± 0.009 mol Pi/mol protein”.

Regarding SNN: SNAP-25 SNN fragment, SNNFR 11–82, in the data set with Hsc70 [2], the “competition with p5 peptide for binding to Hsc70” value is listed as “competed with p5 peptide for binding to Hsc70”.

Consider heat shock cognate 70 [Hsc70], for which the “aggregation of the chaperone alone” value in data set [3] (OD 360 nm (Fig. 2)) was “no aggregation”; in data set [3] (OD600 (Fig. S2A), Hsc70 5 μM, CSPa-J 5 μM, Apg2 0.5 μM), “exhibit no aggregation”. In addition, the “lag time of SNAP-25 aggregation in the presence of Hsc70” value in the data set on SNAP-25 [4] was approximately 65 h. Moreover, the “SNARE complex formation by SNAP-25 taken at 0 h and 64 h of aggregation in the presence of Hsc70” value in data set [5] was “can productively form a SNARE complex”. For the same substance, the “conformational change upon Hsc70-SNAP-25 interaction” value in the data set on SNAP-25 [6] was “no significant conformational change”.

On to SNC: SNAP-25 SNC fragment, SNCFR141–201, for which the “competition with p5 peptide for binding to Hsc70” value with Hsc70 [2] is recorded as “competed with p5 peptide for binding to Hsc70”.

These data come from PMC11697113, “The Hsc70 system maintains the synaptic SNARE protein SNAP-25 in an assembly-competent state and delays its aggregation [drawing 1]” (The Journal of Biological Chemistry, 2024).
